{
  "source": "the supplement of paper PMC7877785",
  "assay": "self-splicing fitness, log relative to wild type (ln ratio); higher = more splicing; Tetrahymena group I intron in knt gene, E. coli kanamycin selection, DiMSum; sequences stand for … in CUCUCU…GGAGGGAAAAGUUAUCAGGCAUGCACCUGGUAGCUAGUCUUUAAACCAAUAGAUUGCAUCGGUUUAAAAGGCAAGACCGUCAAAUUGCGGGAAAGGGGUCAACAGCCGUUCAGUACCAAGUCUCAGGGGAAACUUUGAGAUGGCCUUGCAAAGGGUAUGGUAAUAAGCUGACGGACAUGGUCCUAACCACGCAGCCAAGUCCUAAGUCAACAGAUCUUCUGUUGAUAUGGAUGCAGUUCACAGACUAAAUGUCGGUCGGGGAAGAUGUAUUCUUCUCAUAAGAUAUAGUCGGACCUCUCCUUAAUGGGAGCUAGCGGAUGAAGUGAUGCAACACUGGAGCCGCUGGGAACUAAUUUGUAUGCGAAAGUAUAUUGAUUAGUUUUGGAGUACUCGUGGUCG",
  "summary_of_the_method": "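Pooled colonies went to amplicon sequencing on an Illumina HiSeq 2500 after six replicate transformations. The plates were LB agar with 100 μg/mL carbenicillin, 50 μM IPTG and 0.2% rhamnose, with or without 25 μg/mL kanamycin, incubated overnight at 37°C or 30°C. The E. coli BL21(DE3) library had all eight P1ex-region intron nucleotides randomised, the intron placed in the knt kanamycin-resistance gene on pET-22b(+). DiMSum fitness is the error-weighted combination of replicate fold changes, kanamycin against none, normalised to wild type.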",
  "note": "± gives the uncertainty stated by the source.",
  "data": [
    {"sequence": "CGGUAGCAAUAUUACGUGCA", "values": [
      {"measurement": "self-splicing fitness (ln)", "setting": "30 °C", "value": "-1.61 ± 0.12"},
      {"measurement": "self-splicing fitness (ln)", "setting": "37 °C", "value": "-0.501 ± 0.13"}
    ]},
    {"sequence": "CUGGAGCAAUAUUACGUAGG", "values": [
      {"measurement": "self-splicing fitness (ln)", "setting": "30 °C", "value": "-1.78 ± 0.071"},
      {"measurement": "self-splicing fitness (ln)", "setting": "37 °C", "value": "-1.4 ± 0.095"}
    ]},
    {"sequence": "ACACAGCAAUAUUACGCCGA", "values": [
      {"measurement": "self-splicing fitness (ln)", "setting": "30 °C", "value": "-1.15 ± 0.08"},
      {"measurement": "self-splicing fitness (ln)", "setting": "37 °C", "value": "-1.34 ± 0.094"}
    ]},
    {"sequence": "CCCUAGCAAUAUUACGUAGA", "values": [
      {"measurement": "self-splicing fitness (ln)", "setting": "30 °C", "value": "-4.06 ± 0.26"},
      {"measurement": "self-splicing fitness (ln)", "setting": "37 °C", "value": "-3.05 ± 0.26"}
    ]},
    {"sequence": "UGGCAGCAAUAUUACGGACA", "values": [
      {"measurement": "self-splicing fitness (ln)", "setting": "30 °C", "value": "0.0855 ± 0.098"},
      {"measurement": "self-splicing fitness (ln)", "setting": "37 °C", "value": "0.0548 ± 0.14"}
    ]},
    {"sequence": "GUUCAGCAAUAUUACGCCGG", "values": [
      {"measurement": "self-splicing fitness (ln)", "setting": "30 °C", "value": "-2.55 ± 0.21"},
      {"measurement": "self-splicing fitness (ln)", "setting": "37 °C", "value": "-0.806 ± 0.28"}
    ]},
    {"sequence": "AGGUAGCAAUAUUACGGAAU", "values": [
      {"measurement": "self-splicing fitness (ln)", "setting": "30 °C", "value": "-2.678 ± 0.019"},
      {"measurement": "self-splicing fitness (ln)", "setting": "37 °C", "value": "-1.29 ± 0.035"}
    ]},
    {"sequence": "CGGAAGCAAUAUUACGUCUG", "values": [
      {"measurement": "self-splicing fitness (ln)", "setting": "30 °C", "value": "-3.74 ± 0.2"},
      {"measurement": "self-splicing fitness (ln)", "setting": "37 °C", "value": "-2.46 ± 0.19"}
    ]},
    {"sequence": "GGCGAGCAAUAUUACGAACC", "values": [
      {"measurement": "self-splicing fitness (ln)", "setting": "30 °C", "value": "-2.56 ± 0.071"},
      {"measurement": "self-splicing fitness (ln)", "setting": "37 °C", "value": "-1.11 ± 0.085"}
    ]},
    {"sequence": "CCGGAGCAAUAUUACGGCGA", "values": [
      {"measurement": "self-splicing fitness (ln)", "setting": "30 °C", "value": "-3.92 ± 0.33"},
      {"measurement": "self-splicing fitness (ln)", "setting": "37 °C", "value": "-2.42 ± 0.48"}
    ]},
    {"sequence": "GGGAAGCAAUAUUACGGGGG", "values": [
      {"measurement": "self-splicing fitness (ln)", "setting": "30 °C", "value": "-4.18 ± 0.35"},
      {"measurement": "self-splicing fitness (ln)", "setting": "37 °C", "value": "-3.18 ± 0.32"}
    ]},
    {"sequence": "ACUGAGCAAUAUUACGGUAA", "values": [
      {"measurement": "self-splicing fitness (ln)", "setting": "30 °C", "value": "-2.81 ± 0.27"},
      {"measurement": "self-splicing fitness (ln)", "setting": "37 °C", "value": "-2.8 ± 0.34"}
    ]},
    {"sequence": "ACGUAGCAAUAUUACGAGGG", "values": [
      {"measurement": "self-splicing fitness (ln)", "setting": "30 °C", "value": "-3.91 ± 0.26"},
      {"measurement": "self-splicing fitness (ln)", "setting": "37 °C", "value": "-2.92 ± 0.26"}
    ]},
    {"sequence": "CUCGAGCAAUAUUACGCCAC", "values": [
      {"measurement": "self-splicing fitness (ln)", "setting": "30 °C", "value": "-2.89 ± 0.43"},
      {"measurement": "self-splicing fitness (ln)", "setting": "37 °C", "value": "-1.24 ± 0.43"}
    ]},
    {"sequence": "ACAGAGCAAUAUUACGGAGC", "values": [
      {"measurement": "self-splicing fitness (ln)", "setting": "30 °C", "value": "-4.22 ± 0.34"},
      {"measurement": "self-splicing fitness (ln)", "setting": "37 °C", "value": "-3.15 ± 0.25"}
    ]},
    {"sequence": "UCGUAGCAAUAUUACGUGUA", "values": [
      {"measurement": "self-splicing fitness (ln)", "setting": "30 °C", "value": "-2.75 ± 0.12"},
      {"measurement": "self-splicing fitness (ln)", "setting": "37 °C", "value": "-0.347 ± 0.11"}
    ]},
    {"sequence": "GUAUAGCAAUAUUACGUCUA", "values": [
      {"measurement": "self-splicing fitness (ln)", "setting": "30 °C", "value": "-0.881 ± 0.17"},
      {"measurement": "self-splicing fitness (ln)", "setting": "37 °C", "value": "-1.01 ± 0.18"}
    ]},
    {"sequence": "AAAAAGCAAUAUUACGUAUU", "values": [
      {"measurement": "self-splicing fitness (ln)", "setting": "30 °C", "value": "-1.92 ± 0.077"},
      {"measurement": "self-splicing fitness (ln)", "setting": "37 °C", "value": "-1.39 ± 0.11"}
    ]},
    {"sequence": "GCUCAGCAAUAUUACGUUAU", "values": [
      {"measurement": "self-splicing fitness (ln)", "setting": "30 °C", "value": "-1.08 ± 0.12"},
      {"measurement": "self-splicing fitness (ln)", "setting": "37 °C", "value": "-0.166 ± 0.12"}
    ]},
    {"sequence": "CAACAGCAAUAUUACGGACU", "values": [
      {"measurement": "self-splicing fitness (ln)", "setting": "30 °C", "value": "-2.52 ± 0.11"},
      {"measurement": "self-splicing fitness (ln)", "setting": "37 °C", "value": "-1.33 ± 0.14"}
    ]},
    {"sequence": "CGCUAGCAAUAUUACGUACC", "values": [
      {"measurement": "self-splicing fitness (ln)", "setting": "30 °C", "value": "-1.89 ± 0.27"},
      {"measurement": "self-splicing fitness (ln)", "setting": "37 °C", "value": "-0.55 ± 0.2"}
    ]},
    {"sequence": "CGUCAGCAAUAUUACGCUGA", "values": [
      {"measurement": "self-splicing fitness (ln)", "setting": "30 °C", "value": "-2.3 ± 0.3"},
      {"measurement": "self-splicing fitness (ln)", "setting": "37 °C", "value": "-1.89 ± 0.33"}
    ]},
    {"sequence": "UCAGAGCAAUAUUACGACAG", "values": [
      {"measurement": "self-splicing fitness (ln)", "setting": "30 °C", "value": "-2.53 ± 0.19"},
      {"measurement": "self-splicing fitness (ln)", "setting": "37 °C", "value": "-2.92 ± 0.36"}
    ]},
    {"sequence": "AGAAAGCAAUAUUACGGGGA", "values": [
      {"measurement": "self-splicing fitness (ln)", "setting": "30 °C", "value": "-3.05 ± 0.17"},
      {"measurement": "self-splicing fitness (ln)", "setting": "37 °C", "value": "-2.07 ± 0.17"}
    ]},
    {"sequence": "GAUCAGCAAUAUUACGUCCU", "values": [
      {"measurement": "self-splicing fitness (ln)", "setting": "30 °C", "value": "-0.874 ± 0.1"},
      {"measurement": "self-splicing fitness (ln)", "setting": "37 °C", "value": "-0.0507 ± 0.092"}
    ]},
    {"sequence": "CUUCAGCAAUAUUACGCAGC", "values": [
      {"measurement": "self-splicing fitness (ln)", "setting": "30 °C", "value": "-2.04 ± 0.22"},
      {"measurement": "self-splicing fitness (ln)", "setting": "37 °C", "value": "-1.5 ± 0.32"}
    ]},
    {"sequence": "GAUCAGCAAUAUUACGGUUG", "values": [
      {"measurement": "self-splicing fitness (ln)", "setting": "30 °C", "value": "-1.02 ± 0.053"},
      {"measurement": "self-splicing fitness (ln)", "setting": "37 °C", "value": "-0.343 ± 0.073"}
    ]},
    {"sequence": "CAAUAGCAAUAUUACGCCGG", "values": [
      {"measurement": "self-splicing fitness (ln)", "setting": "30 °C", "value": "0.0303 ± 0.12"},
      {"measurement": "self-splicing fitness (ln)", "setting": "37 °C", "value": "0.077 ± 0.15"}
    ]},
    {"sequence": "AAAGAGCAAUAUUACGUUCA", "values": [
      {"measurement": "self-splicing fitness (ln)", "setting": "30 °C", "value": "-1.03 ± 0.094"},
      {"measurement": "self-splicing fitness (ln)", "setting": "37 °C", "value": "-0.639 ± 0.097"}
    ]},
    {"sequence": "GCGGAGCAAUAUUACGUGUU", "values": [
      {"measurement": "self-splicing fitness (ln)", "setting": "30 °C", "value": "-2.9 ± 0.31"},
      {"measurement": "self-splicing fitness (ln)", "setting": "37 °C", "value": "-1.47 ± 0.18"}
    ]},
    {"sequence": "CAUCAGCAAUAUUACGAUUG", "values": [
      {"measurement": "self-splicing fitness (ln)", "setting": "30 °C", "value": "-1.45 ± 0.054"},
      {"measurement": "self-splicing fitness (ln)", "setting": "37 °C", "value": "-0.782 ± 0.071"}
    ]},
    {"sequence": "UUGAAGCAAUAUUACGCUGG", "values": [
      {"measurement": "self-splicing fitness (ln)", "setting": "30 °C", "value": "-0.756 ± 0.094"},
      {"measurement": "self-splicing fitness (ln)", "setting": "37 °C", "value": "-0.221 ± 0.15"}
    ]},
    {"sequence": "UUAAAGCAAUAUUACGAGCC", "values": [
      {"measurement": "self-splicing fitness (ln)", "setting": "30 °C", "value": "-2.3 ± 0.15"},
      {"measurement": "self-splicing fitness (ln)", "setting": "37 °C", "value": "-1.42 ± 0.27"}
    ]},
    {"sequence": "CUUAAGCAAUAUUACGUCAC", "values": [
      {"measurement": "self-splicing fitness (ln)", "setting": "30 °C", "value": "-3.97 ± 0.29"},
      {"measurement": "self-splicing fitness (ln)", "setting": "37 °C", "value": "-2.91 ± 0.3"}
    ]},
    {"sequence": "CAGAAGCAAUAUUACGAACA", "values": [
      {"measurement": "self-splicing fitness (ln)", "setting": "30 °C", "value": "-1.81 ± 0.18"},
      {"measurement": "self-splicing fitness (ln)", "setting": "37 °C", "value": "-0.783 ± 0.17"}
    ]},
    {"sequence": "AACGAGCAAUAUUACGCGCC", "values": [
      {"measurement": "self-splicing fitness (ln)", "setting": "30 °C", "value": "-2.77 ± 0.3"},
      {"measurement": "self-splicing fitness (ln)", "setting": "37 °C", "value": "-2.61 ± 0.48"}
    ]},
    {"sequence": "UUAGAGCAAUAUUACGACUC", "values": [
      {"measurement": "self-splicing fitness (ln)", "setting": "30 °C", "value": "-2.73 ± 0.39"}
    ]}
  ]
}
